The record followed here is US20250333501A1 (University of California, published 2025).

Residue numbers refer to the chain shown, from its start. Some results are limits rather than exact numbers.

Assay [1] has as its target T1, human CLDN6 fused to GFP, expressed on engineered HEK293T cells (HEK293T-CLDN6-mGFP) (human, UniProt P56747 1-220).
T1 construct: It calls residues 1-21 a signal peptide; also called Claudin-6; HEK293T-CLDN6-mGFP Artificial CLDN6+; not shown: mGFP tag
T1 sequence: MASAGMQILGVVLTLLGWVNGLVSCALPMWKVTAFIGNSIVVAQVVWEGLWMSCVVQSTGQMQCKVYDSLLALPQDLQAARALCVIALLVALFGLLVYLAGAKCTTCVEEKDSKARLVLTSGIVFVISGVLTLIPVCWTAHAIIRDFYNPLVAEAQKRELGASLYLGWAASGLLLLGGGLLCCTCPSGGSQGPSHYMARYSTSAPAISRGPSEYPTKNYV
Put plainly: FACS, AF647-labelled mAb, HEK293T-CLDN6-mGFP cells. The method, then: (§1) Antibodies were purified and cell surface binding of the antibodies to CLDN6 and the antibody IC₅₀ were determined by FACS in which CLDN6 antibodies were directly conjugated with Alexa Fluor® 647 NHS Ester (Succinimidyl Ester), Cat #A20106 (ThermoFisher Scientific) following the manufacturer's protocol. CLDN6 antibodies were tested from 0.32 nM to 1000 nM (serial dilution 1:5, 6 points) in a 50 μl volume with 150,000 cells system.
(§2) CLDN6-expressing cells were used in FACS assays to determine the CLDN6 antibody's ability to bind to CLDN6 on the surface of cells and to cross-react with other CLDN family members. HEK293 T cells engineered to express human CLDN6 fused to GFP, mouse CLDN6 fused to GFP, CLDN9-GFP, CLDN4-GFP, or CLDN3-GFP, or GFP alone (without CLDN6) were used as artificial models of CLDN6 expression. ARK2, OVCA429, LS513 and MCF7 cells were used as endogenous models of CLDN6 expression, as well as models for CLDN3/4 expression.
(§3) For each type of cell tested and for each mAb, cells were detached from the surface of the culture flasks by EDTA (instead of trypsin) in order to protect the cell surface proteins. The detached cells were then incubated with Alexa Fluor®-labeled CLDN6 mAbs for 30 min in the dark on ice at a pre-determined concentration. The CLDN6 mAbs were directly labeled with Alexa Fluor® 647 NHS Ester (Succinimidyl Ester). After washing, the cells were read by a BD Accuri™ Flow Cytometer C6 to detect antibody-antigen protein binding in channel FL4H. Each antibody was tested at varied concentrations to establish a dose-fluorescence curve. The EC50/IC50 of the antibodies (the concentration of the antibody at which half the max value were calculated based on the values of FL4H (gated in viable singlet cells) using the Very Simple IC50 Tool kit available online which allows biological dose-response data to be plotted and fitted to curve types to give the EC50/IC50. The max value was the lowest concentration of the antibody at which fluorescence maxes out. The antibodies were also screened for their ability to cross-react with other CLDN proteins such as CLDN9, CLDN3, and CLDN4. These values were used to determine each antibody's relative affinity among the set of antibodies tested. Cross-reactivity data were obtained using a similar methodology, but with cells having a different expression profile for CLDN6, CLDN3, CLDN4 and CLDN9.

Assay [2] has as its target T2, CLDN6 endogenously expressed by human cancer cell lines (ARK2, OVCA429) (human, UniProt P56747 1-220).
T2 construct: Untagged endogenous protein; also called Endogenous CLDN6+
T2 sequence: T1 sequence
The assay can be described thus: FACS, 0.3 µg Ab, ARK2 cells. The method, then:
(§4) FACS assays were also carried out to determine relative antigen binding strengths of the humanized antibodies (at either 1.5 μg or 0.3 μg) for binding to CLDN6 as expressed by the indicated cancer cell lines. 2nd Ab only was used as a negative control.

In assay [3] the target is T2, CLDN6 endogenously expressed by human …. The assay can be described thus: FACS, 1.5 µg Ab, OVCA429 cells. (In flow cytometry, cells or beads pass a laser one at a time.)
In assay [4] the target is T1, human CLDN6 fused to GFP, expressed on …. Put plainly: FACS, 1.5 µg Ab, 293T clone with human CLDN6. Summed up: (§5)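 Humanized antibodies were tested by flow cytometry, essentially as in the source's direct-binding protocol, on engineered 293T clones expressing human CLDN6. Each antibody was used at 0.3 µg or 1.5 µg. In that protocol, EDTA-detached cells were incubated with Alexa Fluor 647 NHS ester-labelled antibody for 30 min on ice in the dark, washed and read on a BD Accuri C6 in channel FL4H. Fluorescence gives relative antigen binding strength.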

The target of assay [5] is T2, CLDN6 endogenously expressed by human …. Put plainly: FACS, 1.5 µg Ab, ARK2 cells. The method, then:
as §4

Assay [6] addresses T1, human CLDN6 fused to GFP, expressed on …. Put plainly: FACS, 0.3 µg Ab, 293T clone with human CLDN6. Summed up:
as §5

Assay [7] has as its target T2, CLDN6 endogenously expressed by human …. The assay can be described thus: FACS, AF647-labelled mAb, OVCA429 cells. The method, then:
as §1, §2, §3

The target is the same in assay [8]. The assay can be described thus: FACS, AF647-labelled mAb, ARK2 cells. The method, then: as §1, §2, §3

B1: AB19 (antibody, V domains shown)
VH: EVQLQQSGPELVKPGGSMKISCKASGYSFTGYTMNWVKRSHGKNLEWIGLINPYNGVTTYNQNFKGKATLAVDKSSSTAYMELLGLTSEDSAVYYCTRDPLYYGYRDSTMDYWGQGTSVTVSS
VL: NIMMTQSPSSLAVSAGEKVTMSCKSSQSVLFSSNQKNYLAWYQQKPGQSPRLLIYWASTRESGVPDRFTGSGSGTDFTLTISNVQAEDLAVYYCHQYLSSRTFGAGTKLELK
notes: Labelled with Alexa Fluor 647 NHS ester for FACS
In turn, B1 registered an EC50 in assay [1] of at least 5000 nM.

B2: AB9-3 (antibody, V domains shown)
VH: QVQLVQSGAEVKKPGASVKMSCKASGYRFTDYNMHWVRQAPGQGLEWIGYINPNNGGTNYAQKFQGRATLTVDTSTSTAYMELSSLRSEDTAVYYCARDYLYFFDCWGQGTLLTVSS
VL: DIQMTQSPSSLSASVGDRVTITCLASQTIGTWLAWYQQKPGKAPKLLIYAAASLADGVPSRFSGSGSGTDFTFTISSLQPEDFVTYYCQQLYSIPRTFGQGTKLEIK
notes: also called Humanized AB 9-3
Consider B2, for which the FACS fluorescence in assay [2] stood at 1140; in assay [3] it was 1260; in assay [4], 24600; in assay [5] it was 1470; in assay [6], 9500.

B3: AB9-4 (antibody, V domains shown)
VH: B2 VH
VL: B2 VL with L24R
notes: also called Humanized AB 9-4
Take B3: the FACS fluorescence is 1120 in assay [2]; 1110 in assay [3]; 34300 in assay [4]; 1550 in assay [5]; 15300 in assay [6].

B4: AB1 (antibody, V domains shown)
VH: QVQLQQSAAELARPGASVKMSCKASGYTFTTYTMHWVKQRPGQGLEWIGFINPSSGYTDYNQKFKDRTTLTADKSSSTVYMQLSSLTSEDSAVYYCANGDYYVAYWGQGTLVTVSA
VL: QIVLTQSPAIMSASLGERVTMTCTASSSVSSTYFHWYQQKPGSSPKLWIYSTSNLASGVPRRFSGSASGTSYSLTISSMEAEDAATYYCHQYHRSPLTFGAGTKLELK
notes: as for B1
Regarding B4, the EC50 was found to be 84 nM in assay [7], 105 nM in assay [8] and 109 nM in assay [1].

B5: AB17 (antibody, V domains shown)
VH: QVQLQQSGAELAKPGASVKMSCKASGYTFTGYWMHWVKQRPGQGLEWLGYINPSTGYTESNQKFKDKATLTADKSSTTAYMQLRSLTPEDSAVYYCAREGITTVLVDYWGQGTTLTVSS
VL: B4 VL with T32S, F34L, R61A, A67G, L97P
notes: as for B1
In the case of B5, the EC50 in assay [1] stood at 2650 nM.

B6: AB16 (antibody, V domains shown)
VH: EVRLVESGGGLMQPGGSLKLPCAASGFPFSSSAMSWVRQTPEKRLEWVASINSDGNTYYPDSVKGRFTISRDSARNILYLQMSSLRSEDTAMYYCTRNGDYRYDEFAYWGQGTLVTVSA
VL: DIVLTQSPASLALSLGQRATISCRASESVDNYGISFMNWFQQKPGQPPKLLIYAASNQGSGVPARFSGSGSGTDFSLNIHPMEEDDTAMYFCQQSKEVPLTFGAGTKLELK
notes: as for B1
On to B6, for which the EC50 in assay [1] was at least 5000 nM.

B7: AB5 (antibody, V domains shown)
VH: EVQLQQSGPELVKPGASVKMSCKASGYIFTHYIMHWVKQKPGQGLEWIGCINPYNDGTKYNEKFKGKATLTSDKSSSTAYMELSSLTSEDSAVYYCARYYGYPYYSMDYWGQGTSVTVSS
VL: DVLMTQTPLSLPVSLGDQPSISCRSSQSIVHSNGNTYLDWYLQKPGQSPKLLIYKVSNRFSGVPDRFSGSGSGTDFTLKISRVEAEDLGVYYCFQGSHVPFTFGSGTRLEIK
notes: as for B1
As to B7, the EC50 was 5 nM in assay [7], 8 nM in assay [8] and 10 nM in assay [1].

B8: AB11-chim (antibody, V domains shown)
VH: DVQLVESGGGLVQPRGSRKLSCAASGFTFSSFGMHWVRQAPEKGLEWVAYISSDSRTIYYADTVKGRFTISRDNPTNTLFLQMTSLRSEDTAMYYCARDYGRTYEAYWGQGTLVTVSA
VL: DIVLTQSPASLAVSLGQRATISCRASKSVSTSGYSYIHWYQQKPGQPPKLLIYLASNLESGVPARFSGSGSGTDFTLNIHPVEEEDAATYYCQHSRELPLTFGAGTKLELK
notes: 'chim' is the pre-humanized form (parental variable regions); also called pre-humanized (chimeric) form of AB11
Take B8: the FACS fluorescence came out at 1320 in assay [2]; 2440 in assay [3]; 3490 in assay [4]; 1260 in assay [5]; 1670 in assay [6].

B9: AB3 (antibody, V domains shown)
VH: EVKLEESGGGLVQPGGSMKLSCVASGFTFSNYWMNWVRQSPEKGLEWVAQIRLKSDNYATHYAESVKGRFTISRDDSKRSVYLQMNNLRAEDTGTYYCNDGPPSGCWGQGTTLIVSS
VL: DIQMTQSPASLSASVGETVTITCRISENIYSYLAWYQQKQGKSPQLLVYNAKILVEGVPSRFSGSGSGTQFSLKINSLQPEDFGNYYCQHHYTVPWTFGGGTKLEIK
notes: Labelled with Alexa Fluor 647 for FACS and with Texas Red-X in the internalization assay
Turning to B9, the EC50 is 1100 nM in assay [7], 1650 nM in assay [8] and 604 nM in assay [1].

B10: AB2 (antibody, V domains shown)
VH: B9 VH with N31D
VL: B9 VL
notes: as for B1
Consider B10, for which the EC50 came out at 912 nM in assay [7], 1360 nM in assay [8] and 182 nM in assay [1].

B11: AB4 (antibody, V domains shown)
VH: QVQLQQSGAELARPGASVKMSCKASGYTFTSYTMHWIKQRPGQGQEWIGYINPSSTYTHYIKKFKDKATLTADKSSSTAYMQLRSLTSEDSAVYYCSRGELGGFAYWGQGTLVTVSA
VL: DVVMTQTPLSLPVSLGDQASISCRSSQSLVHSDGNTYLNWYLQKPGQSPKLLIYKVSNRFSGVPDRFSGSGSGTDFTLKIRRVEAEDLGVYFCSQSTHVPYTFGGGTKLEIK
notes: as for B9
For the molecule B11, the EC50 in assay [7] was determined as 168 nM; in assay [8], 48 nM; in assay [1], 17 nM.

B12: AB11-2 (antibody, V domains shown)
VH: EVQLVESGGGLVQPGGSLRLSCAASGFTFSSFGMHWVRQAPGKGLEWVAYISSDSRTIYYADSVKGRFTISRDNAKNSLYLQMNSLRAEDTAVYYCARDYGRTYEAYWGQGTLVTVSS
VL: DIVMTQSPDSLAVSLGERATINCRASKSVSTSGYSYIHWYQQKPGQPPKLLIYLASNLESGVPDRFSGSGSGTDFTLTISSLQAEDVAVYYCQHSRELPLTFGQGTKLEIK
notes: also called Humanized AB 11-2
Turning to B12, the FACS fluorescence in assay [2] is 1400; in assay [3], 2690; in assay [4], 2560; in assay [5], 1940; in assay [6], 1290.

B13: AB11-3 (antibody, V domains shown)
VH: B12 VH
VL: B12 VL with M4L, L82V, I110L
notes: also called Humanized AB 11-3
As for B13, the FACS fluorescence in assay [2] came out at 1320; in assay [3] it was 2200; in assay [4], 2360; in assay [5], 1540; in assay [6], 1010.

As a reminder, the EC50 is the concentration needed to bring the measured effect to its halfway point. Low readings indicate greater potency, high ones weaker potency.
